# Experiment: yeast display, Sf9 membrane polyspecificity reagent, FACS + sequencing; frameworks hold sequencing errors
# Summary of the method: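 Nanobodies came from a synthetic yeast display library in Saccharomyces cerevisiae BJ5465, induced with galactose for 36–48 hours and stained for 1 hour at 4 °C with 10% biotinylated, detergent-solubilized Sf9 membrane reagent. Cells were enriched on streptavidin microbeads and then FACS-sorted, with low and high (top ~1%) gates set on anti-HA fluorescence for expression and streptavidin fluorescence for reagent binding. Each polyreactivity label reflects the gate a clone came from. Genes were amplified by colony PCR, sequenced by MiSeq 2 × 250 and filtered by CDR length.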
row,Sequence,polyreactivity (PSR sort gate)
1,QVQLVESGGGLVQAGGSLRLSCAASGRTLTRYAMGWYRQAPGKERELVATISRCGSTNYADSVKGRFTISRDNGKNTVYLQMNSLKPEDTAVYYCAARGRLTAEFDYWGQGTQVTVSS,low polyreactivity
2,QVQLVESGGGLVQAGGSLRLSCAASGRTLVDYGMGWYRQPPGKERELVAVITSGGSTYYADSVKGRFTISRDNAKNTVYLVMNSLKPEDTAVYYCNARHPYYTVQTGGYDYWGQGTQVTVSS,low polyreactivity
3,QVQLVESGGGLVQAGGSLRLSCAASGRTLVGNAMGWYRQAPGKERELVAAISWSGGSTNYADSVKGRFTISRDNAKNTVYLQMNSLKPEDTAVYYCAASVYTYRYWDYYWGQGTQVTVSS,high polyreactivity
4,QVQLVESGGGLVQAGGSLRLSCAASGRTLVKNAMGWYRQAPGKERELVAAISTSGGRTYYADSVKGRFTISRDNAKNTVYLQMNSLKPEDTAVYYCAAVLYATRPVYGFDSWGQGTQVTVSS,high polyreactivity
5,QVQLVESGGGLVQAGGSLRLSCAASGRTLVLYVMGWYRQAPGKERELVAAISSGGSTNYADSVKGRFTISRDNAKNTVYLQMNSLKPEDTAVYYCAARFVLRRDYGYGGQGTQVTVSS,high polyreactivity
6,QVQLVESGGGLVQAGGSLRLSCAASGRTLVPYAMGWYRQAPGKERELVAAINSSGGSTYYADSVKGRFTISRDNAKNTVYLQMNSLKPEDTAVYYCNVQSVHFRLWKDNYWGQGTQVTVSS,high polyreactivity
7,QVQLVESGGGLVQAGGSLRLSCAASGRTLVRYTMGWYRQAPGKERELVASISQRGGTTYYADSVKGRFTISRDNAKNTVYLQMNSLKPEDTAVYYCNKASVSGSSGGGYESWGQGTQVTVSS,low polyreactivity
8,QVQLVESGGGLVQAGGSLRLSCAASGRTLVVYAMGWYRQAPGKERELVADINWSGGRTYYADSVKGRFTISRDNAKNTVYLQMNSLKPEDTAVYYWAADLSWRQYYREYDYWGQGTQVSVSS,high polyreactivity
9,QVQLVESGGGLVQAGGSLRLSCAASGRTLVYYAMGWYRQAPGKERELVAAISWSGSRTYYADSVKGRFTISRDNAKNTVYLQMNSLKPEDTAVYYCATLTFRTNGTMDYWGQGTQVTVSS,high polyreactivity
10,QVQLVESGGGLVQAGGSLRLSCAASGRTLWIYAMGWYRQAPGKERELVASITTRGGSTYYADSVKGRFTISRDNAKNTVYLQMNSLKPEDTAVYYCAAEGYTYYTYYPHDYWGQGTQVTVSS,high polyreactivity
11,QVQLVESGGGLVQAGGSLRLSCAASGRTLWSYAMGWYRQAPGKEREIVAAISRRGGITYYADSVKGRFTISRDYAKNTVFLQRISLKPVDTAVFYSAKGAQSYYGGQVKYDYWGQGTQVTVSS,high polyreactivity
12,QVQLVESGGGLVQAGGSLRLSCAASGRTLWTNAMGWYRQAPGKEREFVAPITWRGGSTYYADSVKGRFTISRDNAKNTVNLQMNSLKPEDTAVYYCATLIPRKGSRYYHRGYWGQGSQVTVSS,high polyreactivity
13,QVQLVESGGGLVQAGGSLRLSCAASGRTLYIYAMGWYRQAPGKERELVAAITRRGDSTYYADSVKGRFTISRDNAKNTVYLQMNSLKPVDTAVYYCAADFPDTSSQYDPAYEYWGQGTQVTVSS,low polyreactivity
14,QVQLVESGGGLVQAGGSLRLSCAASGRTLYLYAMGWYRQEPGKERELVAGITWSGGSTYYADSVKGRFTISRDNAKNTVYLQMNSLKPEDTAVYYCAAVSYPDYDYWGQGTQVTVSS,low polyreactivity
15,QVQLVESGGGLVQAGGSLRLSCAASGRTLYWYAMGWYRQAPGKERELVAAISSGGGSTYYADSVKGRFTISRDNAKNTVYLQMNSLKPEDTAVYYCATDEPWVYGYDYWGQGTQVTVSS,low polyreactivity
16,QVQLVESGGGLVQAGGSLRLSCAASGRTMGQNVMGLYRQAPGKERELVAAISSNTAGNTYYADSVKGRFTISRDNAKNTVYLQMNSLKPEDTAVYYCAKVDSFEAKLDYWGQGTQVTVSS,low polyreactivity
17,QVQLVESGGGLVQAGGSLRLSCAASGRTMYRNAMGWYRQAPGKERELVDDISRSGGSTFYADSVKGRFTISRDNAKNTVYLQMNSLKPEDTAVYYCNADYQEYVSGYDYWGQGTQVTVSS,high polyreactivity
18,QVQLVESGGGLVQAGGSLRLSCAASGRTSAKYAMGWYRQAPGKERELVAVITKNSGSTYYADSVKGRFTISRDNAKNTVYLQMNSLKPEDTAVYYCNRVPRGINRQSRPEDYWGQGTQVTVSS,high polyreactivity
19,QVQLVESGGGLVQAGGSLRLSCAASGRTSARYGMGWYRQAPGKERELVASIRRSGDSTYYADSVKGRFTISRDNAKNTVYLQMNSLKPEDTAVYYCAAGGKQGKRDYWGQGTQVTVSS,low polyreactivity
20,QVQLVESGGGLVQAGGSLRLSCAASGRTSEFNAMGWYRQAPGKERELVAAITDGGNTNYADSVKGRFTISRDNAKNTVYLQMNSLKPEDTAVYYCAAERYTWWGFDYDYWGQGTQVTVSS,high polyreactivity
21,QVQLVESGGGLVQAGGSLRLSCAASGRTSFWNAMGWYRQAPGKERELVSAISASVGRTYYADSVKGRFTISRDNAKNTVYLQMNSLKPEDTAVYYSAKVYHAGTGYPSLGLDYWGQGTQVTVSS,low polyreactivity
22,QVQLVESGGGLVQAGGSLRLSCAASGRTSGYYAMGWYRQAPGKERELVAAISGGDSTNYADSVKGRFTFSRDNAKNTVYLQMNSLKPEDTAVYYCAKRTRVSWVPTFDYWGQGTQGTVSS,low polyreactivity

row,Sequence,polyreactivity (PSR sort gate)
1,QVQLVESGGGLVQAGGSLRLSCAASGRTSHRNVMGWYRQAPGTEREVVARISRSGGRTYYADSVKGRFTISRDNAKNTVYSQMNSLKPEDTAVYYCNADYSSRGANYDYWGQGTQVTVSS,high polyreactivity
2,QVQLVESGGGLVQAGGSLRLSCAASGRTSNVYAMGWYRQAPGKERELVAAISSRDGTTYYADSVKGRFTISRDNAKNTVYLQMNSLKPEDTAVYYCAAAVLSYADYYYDYEYWGQGTQVTVSS,high polyreactivity
3,QVQLVESGGGLVQAGGSLRLSCAASGRTSPVYAMGWYRQAPGKERELVAAIRGGARTYYADSEKGRFTISRDNAKNTVYLQMNSLKPEDTAVYYCATGSRYRLGPGDSWGQGTQGTVSS,high polyreactivity
4,QVQLVESGGGLVQAGGSLRLSCAASGRTSRFDAMGWDIEAPGKERELVARITTRGGSTYYADSVKGRFTISRDNAKNTVYLQMNSLKPEDTAVYFCNAKVTRGDVGGRFEYWGQGTQVTVSS,high polyreactivity
5,QVQLVESGGGLVQAGGSLRLSCAASGRTSRFYAMGWYRQAPGKERELVARITTRGGSTYYADSVKGRFTISRDNAKNTVYLQRNSLKPEDTAVYYCNTAFWYSRSMDYWGQGTQVTVSS,high polyreactivity
6,QVQLVESGGGLVQAGGSLRLSCAASGRTSRIYAMGWYRPAPGKRELVAAISGSGSRTYYADSVKGRFTISRDNAKNTVYIQMNSLKPEDTAVYYCNGRYWYRDHPPEFDYWGQGTQVTVSS,high polyreactivity
7,QVQLVESGGGLVQAGGSLRLSCAASGRTSSRNAMGWYRQAPGKERELVAAISQSGGSTYYADSVKGRFTISRDNAKNTVYLQMNSLKPEDTAVYYCAKEYKPQSYPTYYNYYYWGQGTQVTVSS,low polyreactivity
8,QVQLVESGGGLVQAGGSLRLSCAASGRTSSTYDMGWYRQAPGKERELVADITWSGGSTYYADSVKGRFTISRDNAKNTVYLQMNRLKPEDTAVYYCAAPFVKFVGSLVYAGYDSWGQGTQVTVSS,low polyreactivity
9,QVQLVESGGGLVQAGGSLRLSCAASGRTSSWYVMGWYRQAPGKERELVAAISGSGGSTYYADSVKGRFTISRDNAKNTVYLQMNSLKPEDTAVYYCAADSWSYSGYNYWGQGTQVTVSS,high polyreactivity
10,QVQLVESGGGLVQAGGSLRLSCAASGRTSTQNAMGWYRQAPGKERELVAAITTGGGSTYYADSVKGRFTISRDNAKNTVYLQMNSLKPEDTAVYYCAARTPQRSEWTKYGYWGQGTQVTVSS,low polyreactivity
11,QVQLVESGGGLVQAGGSLRLSCAASGRTSVNYAMGWYREAPGKERELVASITYSDGRTYYADSVKGRFTISRDNAKNTVYLQMNSLKPEDTAVYYCAARGYSYRGWRMDYWGQGTQVTVSS,high polyreactivity
12,QVQLVESGGGLVQAGGSLRLSCAASGRTSVVHAMGWYRQAPGKERELVAAITSGGSTHYADSVKGRFTISRDNAKNTVYLQMNSLKPEDTAVYSCNARDRRRTNLLDYWGQGTQVTVSS,low polyreactivity
13,QVQLVESGGGLVQAGGSLRLSCAASGRTSWRYAMGWYRQAPGKERELVAANNRGGSTYYADSVKGRFTISRDNAKNTVYLQMNSLKPEDTAVYYCAVDTPLEYYHQQAYVAGEYWGQGTQVTVSS,low polyreactivity
14,QVQLVESGGGLVQAGGSLRLSCAASGRTSWVNAMGWYRQAPGKERELVAAIVSGGTTKYADSVKGRFTISRDNAKNTVYLQMNSMKPEDTAVYYCAAALGLGGQKTRRYEYWGQGTQVTVSS,high polyreactivity
15,QVQLVESGGGLVQAGGSLRLSCAASGRTSWYTMGWYRQAPGKERELVAAISGSGGITYYADSVKGRFTISRDNAKNTVYLQMNSLKPEDTAVYYCNALRPRSLTEMYYWGQGTQVTVSP,high polyreactivity
16,QVQLVESGGGLVQAGGSLRLSCAASGRTSYGYAMGWYRQAPGKERELVAAITSSGGSTYYADSVKGRFTISRDNAKNTVYLEMNSLKPEDTAVYYCAASRVRYSYGYPYYYWGQGTQVTVSS,high polyreactivity
17,QVQLVESGGGLVQAGGSLRLSCAASGRTSYTNAMGWYRQAPGKERELVAAINYSGGSTYYADSVKGRFTISRDNAKNTVYLQMNSLKPEDIAVYYCAAERYYWYTEMGYWGQGTQGTVSS,high polyreactivity
18,QVQLVESGGGLVQAGGSLRLSCAASGRTSYYAMGWYRQAPGKERELVAAINSGDSTTYADSVKGRFTISRDNAKNTVYLQMNSLKPEDTAVYYCATALYDWYSLEFDYWGQGTQVTVSS,low polyreactivity
19,QVQLVESGGGLVQAGGSLRLSCAASGRTTWIYAMGWYRQAPGKERELVAVISKRGGNTYYADSVKGRFTISRDNAKNTVYLQMNSLKPADTAVYYCAAAGVYGSYDYWGQGTQVTVSS,high polyreactivity
20,QVQLVESGGGLVQAGGSLRLSCAASGRTVSFYDMGWYRQAPGKERELVAAINSGSSTYYADSVKGRCTISRDNANTTVYLQMNSLKPEDTAVYYCADEPYFWWQNEYWGQGTQVTVSS,high polyreactivity
21,QVQLVESGGGLVQAGGSLRLSCAASGRTYGVYAMGWYRQAPGKERELVATITLSGGRTYYAHSVKGRFTISRDNAKNTVYLEMNSLKPEDSAVYYCNARFSYYYGFRASRLDYWGQGTQVNVSS,high polyreactivity

# Reference: the nanobody polyreactivity screen of Harvey et al. (2022)
